# Measurements taken from patent US12338277.
# Tests used:
# Assay in all cases: cell-based or functional assay
# [1] = biological target: HIV-1 envelope of pseudovirus TRJO4551.58 (HIV-1)
# [2] = biological target: HIV-1 Env of pseudovirus Du422.1 (HIV-1)
# [3] = biological target: HIV-1 Env of pseudovirus 231965.c01 (HIV-1)
# [4] = biological target: HIV-1 envelope of pseudovirus C3347.c11 (HIV-1)
# [5] = biological target: HIV-1 envelope of pseudovirus YU-2 (HIV-1)
# [6] = biological target: HIV-1 envelope of pseudovirus T257-31 (HIV-1)
# [7] = biological target: HIV-1 envelope of pseudovirus BJOX010000.06.2 (HIV-1)
# [8] = biological target: HIV-1 envelope of pseudovirus 6041.v3.c23 (HIV-1)
# [9] = biological target: HIV-1 envelope spike of pseudovirus 6535.3 (HIV-1)
# [10] = biological target: HIV-1 Env of pseudovirus 246F C1G (HIV-1)
# [11] = biological target: HIV-1 Env of pseudovirus 211-9 (HIV-1)
# [12] = biological target: HIV-1 envelope of pseudovirus CNE21 (HIV-1)
# [13] = biological target: HIV-1 envelope of pseudovirus C4118.c09 (HIV-1)
# [14] = biological target: HIV-1 envelope of pseudovirus CNE17 (HIV-1)
# [15] = biological target: HIV-1 envelope of pseudovirus BF1266.431a (HIV-1)
# [16] = biological target: HIV-1 envelope of pseudovirus 6535.3 (HIV-1)
# [17] = biological target: HIV-1 envelope of pseudovirus WITO4160.33 (HIV-1)
# [18] = biological target: HIV-1 envelope of pseudovirus ZM247v1(Rev-) (HIV-1)
# [19] = biological target: HIV-1 envelope spike of pseudovirus QH0692.42 (HIV-1)
# [20] = biological target: HIV-1 Env of pseudovirus 191821_E6_1 (HIV-1)
# [21] = biological target: HIV-1 envelope of pseudovirus Ce704809221_1B3 (HIV-1)
# [22] = biological target: HIV-1 Env of pseudovirus T257-31 (HIV-1)
# [23] = biological target: HIV-1 envelope of pseudovirus THRO4156.18 (HIV-1)
# [24] = biological target: HIV-1 Env of pseudovirus BJOX015000.11.5 (HIV-1)
# [25] = biological target: HIV-1 Env of pseudovirus SC422661.8 (HIV-1)
# [26] = biological target: HIV-1 envelope of pseudovirus CNE5 (HIV-1)
# [27] = biological target: HIV-1 envelope of pseudovirus 62357_14_03_4589 (HIV-1)
# [28] = biological target: HIV-1 envelope of pseudovirus Ce1172_H1 (HIV-1)
# [29] = biological target: HIV-1 Env of pseudovirus X1193_c1 (HIV-1)
# [30] = biological target: HIV-1 envelope of pseudovirus 3415.v1.c1 (HIV-1)
# [31] = biological target: HIV-1 Env of pseudovirus BF1266.431a (HIV-1)
# [32] = biological target: HIV-1 Env of pseudovirus 6535.3 (HIV-1)
# [33] = biological target: HIV-1 envelope of pseudovirus T251-18 (HIV-1)
# [34] = biological target: HIV-1 Env of pseudovirus CNE21 (HIV-1)
# [35] = biological target: HIV-1 envelope spike of pseudovirus BaL.26 (HIV-1)
# [36] = biological target: HIV-1 Env of pseudovirus Du172.17 (HIV-1)
# [37] = biological target: HIV-1 Env of pseudovirus 191084 B7-19 (HIV-1)
# [38] = biological target: HIV-1 envelope of pseudovirus 3016.v5.c45 (HIV-1)
# [39] = biological target: HIV-1 envelope of pseudovirus CAP210.2.00.E8 (HIV-1)
# [40] = biological target: HIV-1 Env of pseudovirus CAP210.2.00.E8 (HIV-1)
# [41] = biological target: HIV-1 envelope of pseudovirus Du156.12 (HIV-1)
# [42] = biological target: HIV-1 Env of pseudovirus X2131_C1_85 (HIV-1)
# [43] = biological target: HIV-1 envelope of pseudovirus CNE20 (HIV-1)
# [44] = biological target: HIV-1 envelope of pseudovirus ZM214M.PL15 (HIV-1)
# [45] = biological target: HIV-1 envelope of pseudovirus 191821_E6_1 (HIV-1)
# [46] = biological target: HIV-1 envelope of pseudovirus Q23.17 (HIV-1)
# [47] = biological target: HIV-1 envelope of pseudovirus HIV-16055-2.3 (HIV-1)
# [48] = biological target: HIV-1 Env of pseudovirus PVO.4 (HIV-1)
# [49] = biological target: HIV-1 Env of pseudovirus Ce704809221_1B3 (HIV-1)
# [50] = biological target: HIV-1 envelope of pseudovirus REJO4541.67 (HIV-1)
# Sequence of 10-1074 (antibody) (VH): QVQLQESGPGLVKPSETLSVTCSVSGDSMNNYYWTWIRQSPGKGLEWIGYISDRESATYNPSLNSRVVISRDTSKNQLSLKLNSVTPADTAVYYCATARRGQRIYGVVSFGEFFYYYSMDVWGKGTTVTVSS
# Sequence of 10-1074 (antibody) (V domain): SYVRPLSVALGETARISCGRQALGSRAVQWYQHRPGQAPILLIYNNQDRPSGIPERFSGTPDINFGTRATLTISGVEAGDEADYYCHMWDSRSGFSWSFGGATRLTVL
substance,measurement,setting,value
10-1074 (antibody),IC50 (TZM-bl neutralization),[1],0.17 µg/mL
same,IC80 (TZM-bl neutralization),[2],0.166 µg/mL
same,IC80 (TZM-bl neutralization),[3],> 50 µg/mL
same,IC50 (TZM-bl neutralization),[4],> 50 µg/mL
same,IC50 (TZM-bl neutralization),[5],0.143 µg/mL
same,IC50 (TZM-bl neutralization),[6],> 50 µg/mL
same,IC50 (TZM-bl neutralization),[7],> 50 µg/mL
same,IC50 (TZM-bl neutralization),[8],> 50 µg/mL
same,IC50 (TZM-bl neutralization assay),[9],0.007 µg/mL
same,IC80 (TZM-bl neutralization assay),[9],0.044 µg/mL
same,IC80 (TZM-bl neutralization),[10],0.111 µg/mL
same,IC80 (TZM-bl neutralization),[11],0.425 µg/mL
same,IC50 (TZM-bl neutralization),[12],0.087 µg/mL
same,IC50 (TZM-bl neutralization),[13],> 50 µg/mL
same,IC50 (TZM-bl neutralization),[14],2.69 µg/mL
same,IC50 (TZM-bl neutralization),[15],> 50 µg/mL
same,IC50 (TZM-bl neutralization),[16],0.014 µg/mL
same,IC50 (TZM-bl neutralization),[17],0.185 µg/mL
same,IC50 (TZM-bl neutralization),[18],0.042 µg/mL
same,IC50 (TZM-bl neutralization assay),[19],0.259 µg/mL
same,IC80 (TZM-bl neutralization assay),[19],0.861 µg/mL
same,IC80 (TZM-bl neutralization),[20],> 50 µg/mL
same,IC50 (TZM-bl neutralization),[21],0.139 µg/mL
same,IC80 (TZM-bl neutralization),[22],> 50 µg/mL
same,IC50 (TZM-bl neutralization),[23],> 50 µg/mL
same,IC80 (TZM-bl neutralization),[24],> 50 µg/mL
same,IC80 (TZM-bl neutralization),[25],0.418 µg/mL
same,IC50 (TZM-bl neutralization),[26],> 50 µg/mL
same,IC50 (TZM-bl neutralization),[27],> 50 µg/mL
same,IC50 (TZM-bl neutralization),[28],0.047 µg/mL
same,IC80 (TZM-bl neutralization),[29],0.475 µg/mL
same,IC50 (TZM-bl neutralization),[30],> 50 µg/mL
same,IC80 (TZM-bl neutralization),[31],> 50 µg/mL
same,IC80 (TZM-bl neutralization),[32],0.026 µg/mL
same,IC50 (TZM-bl neutralization),[33],1.08 µg/mL
same,IC80 (TZM-bl neutralization),[34],0.181 µg/mL
same,IC50 (TZM-bl neutralization assay),[35],0.033 µg/mL
same,IC80 (TZM-bl neutralization assay),[35],0.124 µg/mL
same,IC80 (TZM-bl neutralization),[36],0.43 µg/mL
same,IC80 (TZM-bl neutralization),[37],0.128 µg/mL
same,IC50 (TZM-bl neutralization),[38],> 50 µg/mL
same,IC50 (TZM-bl neutralization),[39],> 50 µg/mL
same,IC80 (TZM-bl neutralization),[40],> 50 µg/mL
same,IC50 (TZM-bl neutralization),[41],0.015 µg/mL
same,IC80 (TZM-bl neutralization),[42],0.064 µg/mL
same,IC50 (TZM-bl neutralization),[43],< 0.001 µg/mL
same,IC50 (TZM-bl neutralization),[44],0.174 µg/mL
same,IC50 (TZM-bl neutralization),[45],> 50 µg/mL
same,IC50 (TZM-bl neutralization),[46],0.006 µg/mL
same,IC50 (TZM-bl neutralization),[47],> 50 µg/mL
same,IC80 (TZM-bl neutralization),[48],0.36 µg/mL
same,IC80 (TZM-bl neutralization),[49],0.696 µg/mL
same,IC50 (TZM-bl neutralization),[50],> 50 µg/mL
